The values that follow come from publication PMC8017705 (Proceedings of the National Academy of Sciences of the …, 2021).

The star is where a group is joined. Biotin = O=C1N[C@H]2[C@H](CS[C@H]2CCCCC(=O)*)N1

This assay has as its target T1, human RORγt ligand binding domain (residues 265 to 518) with an N-terminal His6-tag (human, UniProt P51449-1 265-518).
T1 sequence (looked up): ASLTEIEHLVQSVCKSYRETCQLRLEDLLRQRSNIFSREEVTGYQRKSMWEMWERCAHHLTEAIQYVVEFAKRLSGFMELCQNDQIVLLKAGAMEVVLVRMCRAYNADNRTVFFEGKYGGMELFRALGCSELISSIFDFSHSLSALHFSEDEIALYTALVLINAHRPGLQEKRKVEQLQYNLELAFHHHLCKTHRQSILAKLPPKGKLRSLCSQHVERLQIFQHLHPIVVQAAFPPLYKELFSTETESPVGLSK
In words: AlphaScreen or HTRF. A general note: Alpha assays give light when donor and acceptor beads are brought close together.

B1: N-terminal biotinylated SRC-1 box2 peptide (peptide)
peptide: Biotin-PSSHSSLTARHKILHRLLQEGSPSD-NH2
SMILES: CC[C@H](C)[C@H](NC(=O)[C@H](CCCCN)NC(=O)[C@H](Cc1c[nH]cn1)NC(=O)[C@H](CCCNC(=N)N)NC(=O)[C@H](C)NC(=O)[C@@H](NC(=O)[C@H](CC(C)C)NC(=O)[C@H](CO)NC(=O)[C@H](CO)NC(=O)[C@H](Cc1c[nH]cn1)NC(=O)[C@H](CO)NC(=O)[C@H](CO)NC(=O)[C@@H]1CCCN1C(=O)CCCC[C@@H]1SC[C@@H]2NC(=O)N[C@@H]21)[C@@H](C)O)C(=O)N[C@@H](CC(C)C)C(=O)N[C@@H](Cc1c[nH]cn1)C(=O)N[C@@H](CCCNC(=N)N)C(=O)N[C@@H](CC(C)C)C(=O)N[C@@H](CC(C)C)C(=O)N[C@@H](CCC(N)=O)C(=O)N[C@@H](CCC(=O)O)C(=O)NCC(=O)N[C@@H](CO)C(=O)N1CCC[C@H]1C(=O)N[C@@H](CO)C(=O)N[C@@H](CC(=O)O)C(N)=O
As to B1, the binding result is “binds”.
